Tests used:
Experiment in all cases: ITC; 50 mM KPi pH 7, 25 C; 50 mM KPi pH 7; ITC at 25 C (50 uM protein in cell, 500 uM RNA in syringe); NMR at 298 K, 0.1 mM protein, 90% H2O/10% D2O
Details in all cases: protein: recombinant; tags: IMAC tag (pET20b+; tag not specified)
La RRM1-RRM2-Cter = target: T1, La RRM1-RRM2-Cter (Homo sapiens, UniProt P05455 105-408)
T1 sequence: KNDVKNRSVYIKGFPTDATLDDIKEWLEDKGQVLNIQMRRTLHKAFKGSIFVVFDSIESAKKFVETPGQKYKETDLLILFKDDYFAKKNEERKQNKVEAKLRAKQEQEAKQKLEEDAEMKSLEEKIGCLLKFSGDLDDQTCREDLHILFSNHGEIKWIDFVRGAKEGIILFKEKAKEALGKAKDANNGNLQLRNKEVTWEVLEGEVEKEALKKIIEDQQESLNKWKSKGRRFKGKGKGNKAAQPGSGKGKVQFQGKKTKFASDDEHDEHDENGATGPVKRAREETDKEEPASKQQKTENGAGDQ

La RRM2-Cter = target: T2, La RRM2-Cter (Homo sapiens, UniProt P05455 225-408)
T2 sequence: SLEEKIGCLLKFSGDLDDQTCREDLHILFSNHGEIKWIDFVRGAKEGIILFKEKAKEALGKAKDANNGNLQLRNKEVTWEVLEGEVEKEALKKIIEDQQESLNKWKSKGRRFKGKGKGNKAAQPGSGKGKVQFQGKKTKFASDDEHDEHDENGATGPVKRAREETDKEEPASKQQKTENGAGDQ

La RRM1-RRM2-SBM = target: T3, La RRM1-RRM2-SBM (Homo sapiens, UniProt P05455 105-359)
T3 sequence: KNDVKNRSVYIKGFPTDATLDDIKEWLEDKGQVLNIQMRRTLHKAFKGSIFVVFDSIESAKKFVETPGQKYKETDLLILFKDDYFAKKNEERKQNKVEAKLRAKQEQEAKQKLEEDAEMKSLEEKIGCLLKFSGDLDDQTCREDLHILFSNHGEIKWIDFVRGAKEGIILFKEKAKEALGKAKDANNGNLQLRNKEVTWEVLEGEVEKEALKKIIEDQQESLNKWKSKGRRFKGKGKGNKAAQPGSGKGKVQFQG

La RRM2-SBM = target: T4, La RRM2-SBM (Homo sapiens, UniProt P05455 225-359)
T4 sequence: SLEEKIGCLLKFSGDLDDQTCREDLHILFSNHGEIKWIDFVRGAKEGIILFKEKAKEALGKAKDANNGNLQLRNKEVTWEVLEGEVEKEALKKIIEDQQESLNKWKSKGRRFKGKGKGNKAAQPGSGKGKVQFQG

Binder: AGACCGUGCACCAUGAGCACGAAUCCA (structured_RNA) [HCV-IRES domain IV]
- Kd (La RRM1-RRM2-Cter): 9.76 ± 1.1 µM
- Kd (La RRM2-Cter): 15.3 ± 1.49 µM
- Kd (La RRM1-RRM2-SBM): 10.3 ± 2.04 µM
- Kd (La RRM2-SBM): 28.2 ± 1.21 µM

Reference: article PMC9916714, “NMR Analysis Suggests Synergy between the RRM2 and the Carboxy-Terminal Segment of Human La Protein in the Recognition and Interaction with HCV IRES”
